Assay results as given in patent US20040002442A1 (Bayer, published 2004).
Ends that are not written are not given here. * marks the point of attachment. Palmitoyl = CCCCCCCCCCCCCCCC(=O)*

T1: GLP-1 receptor present in the plasma membranes isolated from RINm5F cells (UniProt P32301 22-463, limits assumed)
T1 sequence (looked up): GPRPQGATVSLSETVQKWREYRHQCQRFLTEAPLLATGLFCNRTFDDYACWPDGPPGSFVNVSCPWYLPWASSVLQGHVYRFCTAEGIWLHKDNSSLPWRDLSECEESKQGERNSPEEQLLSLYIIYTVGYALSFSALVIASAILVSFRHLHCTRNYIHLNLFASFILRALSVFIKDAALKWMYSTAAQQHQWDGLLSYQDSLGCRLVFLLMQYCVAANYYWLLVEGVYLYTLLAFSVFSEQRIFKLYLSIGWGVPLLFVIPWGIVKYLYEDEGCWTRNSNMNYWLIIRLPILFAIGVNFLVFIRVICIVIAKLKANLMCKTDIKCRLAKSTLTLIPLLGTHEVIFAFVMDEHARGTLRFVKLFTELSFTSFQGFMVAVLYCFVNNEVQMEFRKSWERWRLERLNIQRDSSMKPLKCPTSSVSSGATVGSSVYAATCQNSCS

B1: G87 (peptide)
peptide: HSQGTFTSDYAKYLDARRAK(Palmitoyl)EFIAWLVKGR-NH2
modifications: N-terminus assumed
SMILES: CCCCCCCCCCCCCCCC(=O)NCCCC[C@H](NC(=O)[C@H](C)NC(=O)[C@H](CCCNC(=N)N)NC(=O)[C@H](CCCNC(=N)N)NC(=O)[C@H](C)NC(=O)[C@H](CC(=O)O)NC(=O)[C@H](CC(C)C)NC(=O)[C@H](Cc1ccc(O)cc1)NC(=O)[C@H](CCCCN)NC(=O)[C@H](C)NC(=O)[C@H](Cc1ccc(O)cc1)NC(=O)[C@H](CC(=O)O)NC(=O)[C@H](CO)NC(=O)[C@@H](NC(=O)[C@H](Cc1ccccc1)NC(=O)[C@@H](NC(=O)CNC(=O)[C@H](CCC(N)=O)NC(=O)[C@H](CO)NC(=O)[C@@H](N)Cc1c[nH]cn1)[C@@H](C)O)[C@@H](C)O)C(=O)N[C@@H](CCC(=O)O)C(=O)N[C@@H](Cc1ccccc1)C(=O)N[C@H](C(=O)N[C@@H](C)C(=O)N[C@@H](Cc1c[nH]c2ccccc12)C(=O)N[C@@H](CC(C)C)C(=O)N[C@H](C(=O)N[C@@H](CCCCN)C(=O)NCC(=O)N[C@@H](CCCNC(=N)N)C(N)=O)C(C)C)[C@@H](C)CC

How the values were obtained:
[1] = target: T2, glucagon receptor present in the plasma membranes isolated from rat liver (rat, UniProt P30082 27-485); assay: 125I-glucagon displacement, rat liver plasma membranes
T2 construct: whole, on cells
Experimental: (§1) Competitive binding of some polypeptides of the invention to rat liver plasma membranes was measured as follows. Ninety-six-well GF/C filtration plates (Millipore, Bedford, Ma.) were blocked with 0.1% PEI for at least one hour and washed twice with binding buffer consisting of 20 mM Tris, 2 mM EDTA, pH 7.5, 1 mg/ml BSA, and 1 mg/ml bacitracin. […] The plates were dried, scintillant was added to each well, and cpm per well determined using a Wallac Microbeta counter.

[2] = target: T1, GLP-1 receptor present in the plasma …; assay: cell-based or functional assay
[3] = target: T2, glucagon receptor present in the plasma …; assay: cell-based or functional assay
[4] = target: T1, GLP-1 receptor present in the plasma …; assay: 125I-GLP-1 displacement, RINm5F plasma membranes
Experimental: as §1, with “RINm5F cell” for “rat liver”, “0.3%” for “0.1%”

T2 sequence (P30082 27-485): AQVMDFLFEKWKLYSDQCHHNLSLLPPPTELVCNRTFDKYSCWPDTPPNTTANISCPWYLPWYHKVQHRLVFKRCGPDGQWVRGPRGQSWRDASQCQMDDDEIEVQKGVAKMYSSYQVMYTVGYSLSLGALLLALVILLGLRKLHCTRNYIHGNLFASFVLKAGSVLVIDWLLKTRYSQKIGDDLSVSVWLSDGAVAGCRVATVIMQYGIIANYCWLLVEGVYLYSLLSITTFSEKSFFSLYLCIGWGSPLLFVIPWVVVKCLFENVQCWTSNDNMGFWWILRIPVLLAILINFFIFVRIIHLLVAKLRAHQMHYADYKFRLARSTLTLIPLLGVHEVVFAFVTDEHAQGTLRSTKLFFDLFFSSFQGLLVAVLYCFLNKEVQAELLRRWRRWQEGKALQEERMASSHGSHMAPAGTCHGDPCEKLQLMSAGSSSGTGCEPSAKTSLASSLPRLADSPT

Binder | IC50 [1] | % GLP1 max, cAMP SPA in RINm5F cells [2] | Relative Potency (%), cAMP SPA in RINm5F cells [2] | % Inhib glucagon stimulated cAMP increase (10 uM peptide, rat hepatocytes) [3] | IC50 [4]
HSQGTFTSDYARYLDARRAREFIAWLVRGRGK [G85] | 16.1 nM | 95.8% | 64.5% | 27.9% | 1.5 nM
B1 | 620 nM | 100% | 6.1% | 59% | 98.6 nM
